# Reference: patent US20250092426, “CAS ENDONUCLEASES AND RELATED METHODS” (Flagship Pioneering Innovations VII, LLC, published 2025)
# T1: CasEnd-7 (synthetic construct)
# T1 chain: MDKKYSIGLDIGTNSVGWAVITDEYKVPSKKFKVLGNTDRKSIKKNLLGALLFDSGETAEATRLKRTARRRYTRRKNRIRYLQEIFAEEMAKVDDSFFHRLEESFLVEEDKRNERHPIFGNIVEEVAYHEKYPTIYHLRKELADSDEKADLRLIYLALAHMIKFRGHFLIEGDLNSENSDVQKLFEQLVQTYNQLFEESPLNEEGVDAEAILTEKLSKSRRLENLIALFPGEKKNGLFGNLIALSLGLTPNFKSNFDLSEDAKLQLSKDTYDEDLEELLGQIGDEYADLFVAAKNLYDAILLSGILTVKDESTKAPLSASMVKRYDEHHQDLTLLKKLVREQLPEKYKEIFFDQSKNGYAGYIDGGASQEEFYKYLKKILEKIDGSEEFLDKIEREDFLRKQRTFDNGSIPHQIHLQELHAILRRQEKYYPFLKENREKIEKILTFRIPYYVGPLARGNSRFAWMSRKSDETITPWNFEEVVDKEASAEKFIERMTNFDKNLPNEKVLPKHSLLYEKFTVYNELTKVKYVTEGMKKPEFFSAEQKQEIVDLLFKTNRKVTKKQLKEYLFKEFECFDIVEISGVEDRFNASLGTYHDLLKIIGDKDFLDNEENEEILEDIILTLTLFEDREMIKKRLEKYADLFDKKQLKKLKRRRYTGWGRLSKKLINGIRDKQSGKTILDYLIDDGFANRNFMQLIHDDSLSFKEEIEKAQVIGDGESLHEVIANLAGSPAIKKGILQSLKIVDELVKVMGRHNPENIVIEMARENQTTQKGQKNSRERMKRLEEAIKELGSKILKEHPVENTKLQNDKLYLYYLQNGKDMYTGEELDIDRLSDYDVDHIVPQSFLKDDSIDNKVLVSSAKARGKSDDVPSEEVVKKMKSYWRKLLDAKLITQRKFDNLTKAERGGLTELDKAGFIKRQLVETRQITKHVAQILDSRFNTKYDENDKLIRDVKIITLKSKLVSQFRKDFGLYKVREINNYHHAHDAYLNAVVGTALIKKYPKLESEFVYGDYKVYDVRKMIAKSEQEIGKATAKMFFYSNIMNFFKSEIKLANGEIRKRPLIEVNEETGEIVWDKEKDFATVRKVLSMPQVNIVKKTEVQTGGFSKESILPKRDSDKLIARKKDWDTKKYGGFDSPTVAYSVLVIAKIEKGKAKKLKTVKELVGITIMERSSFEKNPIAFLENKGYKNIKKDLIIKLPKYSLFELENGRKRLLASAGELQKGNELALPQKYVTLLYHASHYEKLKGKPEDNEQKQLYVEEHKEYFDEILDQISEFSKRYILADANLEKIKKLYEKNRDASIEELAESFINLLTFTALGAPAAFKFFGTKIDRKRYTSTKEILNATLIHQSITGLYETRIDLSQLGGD
# B1: BFP-to-GFP template RNA ; BFP reporter protospacer (ssRNA ; dsDNA)
# RNA: GCCGAAGCACUGCACGCCGUGUUUUAGAGCUAGAAAUAGCAAGUUAAAAUAAGGCUAGUCCGUUAUCAACUUGAAAAAGUGGCACCGAGUCGGUGCACCCUGACGUACGGCGUGCAGUGCUU
# DNA 1: GCCGAAGCACTGCACGCCGT
# DNA 2: ACGGCGTGCAGTGCTTCGGC
# Target: T1, CasEnd-7
# Experiment: cell_activity; +++; HEK293T; PAM not stated
# How it was run: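 Editing activity was scored as the fraction of GFP+ cells on day 4 by flow cytometry. BFP-expressing HEK293T cells (250,000) received by nucleofection 200 ng plasmid for the RT-Cas fusion protein and 200 ng template RNA plasmid designed to convert BFP to GFP.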
binder,measurement,value
B1,activity,≥ 100 % of reference
